Columns and labels:
EGFP-VopF (V. cholerae) = assay: stepwise photobleaching of single-molecule speckles (TIRF, live cells); XTC cells with very low levels of EGFP-VopF or EGFP-VopL; speckles arrested with 10 nM latrunculin A; continuous 488-nm illumination; distribution of bleaching steps compared with a binomial model (probability of EGFP being fluorescent 0.75)
[1] = target: EGFP-VopL (V. parahaemolyticus); assay: as above

Substance | stoichiometry N (EGFP-VopF (V. cholerae)) | stoichiometry N [1]
EGFP-VopF (natural protein) | 2 | –
EGFP-VopL (natural protein) | – | 2
